Results taken from the Immune Epitope Database (IEDB).

Legend:
HLA-B*51:01 = experiment: IEDB peptide-MHC binding, purified MHC/direct/fluorescence; filed as Kd, often an IC50 or EC50 that approximates it; ≥ and ≤ were set here for values at or beyond the usual limits of such assays
HLA-C*03:03 = experiment: as above
HLA-C*12:03 = experiment: as above
HLA-A*02:01 [1] = experiment: IEDB peptide-MHC binding, purified MHC/competitive/fluorescence; filed as Kd, often an IC50 or EC50 that approximates it; ≥ and ≤ were set here for values at or beyond the usual limits of such assays
HLA-A*02:01 [2] = experiment: IEDB peptide-MHC binding, purified MHC/competitive/fluorescence; ≥ and ≤ were set here for values at or beyond the usual limits of such assays
HLA-A*24:02 = experiment: as above
HLA-B*08:01 = experiment: as above
HLA-B*07:02 [3] = experiment: as above
HLA-B*15:01 [4] = experiment: as above
HLA-A*02:16 = experiment: IEDB peptide-MHC binding, purified MHC/competitive/fluorescence; filed as Kd, often an IC50 or EC50 that approximates it; ≥ and ≤ were set here for values at or beyond the usual limits of such assays; details: source organism: Human immunodeficiency virus 1
HLA-A*02:06 = experiment: as above; details: source organism: Human immunodeficiency virus 1
HLA-A*02:12 = experiment: as above; details: source organism: Human immunodeficiency virus 1
HLA-A*69:01 [5] = experiment: as above; details: source organism: Human immunodeficiency virus 1
HLA-A*02:19 = experiment: as above; details: source organism: Human immunodeficiency virus 1
HLA-A*02:03 = experiment: as above; details: source organism: Human immunodeficiency virus 1
HLA-A*02:11 = experiment: as above; details: source organism: Human immunodeficiency virus 1
HLA-A*31:01 = experiment: IEDB peptide-MHC binding, purified MHC/direct/fluorescence; filed as Kd, often an IC50 or EC50 that approximates it; ≥ and ≤ were set here for values at or beyond the usual limits of such assays
HLA-A*29:02 = experiment: as above; details: source organism: Yellow fever virus 1899/81
HLA-A*03:01 [6] = experiment: as above
HLA-B*27:05 = experiment: as above
HLA-B*57:01 = experiment: as above
HLA-A*69:01 [7] = experiment: as above; details: source organism: Yellow fever virus 1899/81
HLA-B*15:01 [8] = experiment: as above
HLA-B*44:02 = experiment: as above
HLA-A*01:01 [9] = experiment: as above; details: source organism: Yellow fever virus 1899/81
HLA-A*11:01 = experiment: as above
HLA-B*18:01 = experiment: as above
HLA-C*05:01 = experiment: as above
HLA-B*46:01 = experiment: as above
HLA-C*14:02 = experiment: as above; details: source organism: Human immunodeficiency virus 1
HLA-B*15:09 = experiment: as above; details: source organism: West Nile virus strain PTRoxo
HLA-B*40:01 = experiment: as above; details: source organism: West Nile virus
HLA-B*48:01 = experiment: as above; details: source organism: West Nile virus
HLA-B*58:01 = experiment: as above; details: source organism: West Nile virus
HLA-B*07:02 [10] = experiment: as above; details: source organism: West Nile virus
HLA-A*03:01 [11] = experiment: IEDB peptide-MHC binding, purified MHC/competitive/fluorescence; ≥ and ≤ were set here for values at or beyond the usual limits of such assays; details: source organism: Vaccinia virus WR
HLA-A*01:01 [12] = experiment: IEDB peptide-MHC binding, purified MHC/competitive/fluorescence; filed as Kd, often an IC50 or EC50 that approximates it; ≥ and ≤ were set here for values at or beyond the usual limits of such assays; details: source organism: Influenza A virus (A/Harbin/1/1988(H1N2))
[13] = source organism: Influenza A virus (A/Hong Kong/532/1997(H5N1))
[14] = source organism: Zaire ebolavirus
[15] = source organism: Vaccinia virus Copenhagen
[16] = source organism: Yellow fever virus 1899/81
[17] = source organism: dengue virus type 4
[18] = source organism: West Nile virus
[19] = source organism: Vaccinia virus WR

Sequence: LANYAFFAI
- Kd (HLA-B*51:01; source organism: Streptococcus pneumoniae): 0.23 µM
- Kd (HLA-C*03:03; source organism: Streptococcus pneumoniae R6): ≤ 0.001 µM

Sequence: YLMAWKQVL
- Kd (HLA-C*12:03; [13]): 0.022 µM
- Kd (HLA-A*02:01 [1]; [13]): 0.0004 µM

Sequence: FPQLSAIAL
- IC50 (HLA-A*02:01 [2]; [14]): ≥ 179 µM
- IC50 (HLA-A*24:02; [14]): 17.8 µM
- IC50 (HLA-B*08:01; [14]): ≥ 129 µM
- IC50 (HLA-B*07:02 [3]; [14]): 13.6 µM

Sequence: LAKAIITPI
- IC50 (HLA-A*02:01 [2]; [15]): 13.7 µM
- IC50 (HLA-A*24:02; [15]): 6.28 µM
- IC50 (HLA-B*15:01 [4]; [15]): 24.5 µM
- IC50 (HLA-B*08:01; [15]): ≥ 138 µM
- IC50 (HLA-B*07:02 [3]; [15]): 56.1 µM

Sequence: SLADQLIHL
- Kd (HLA-A*02:16): 0.0006 µM
- Kd (HLA-A*02:06): ≤ 0.0001 µM
- Kd (HLA-A*02:12): 0.00285 µM
- Kd (HLA-A*02:01 [1]; source organism: Human immunodeficiency virus 1): 0.0425 µM
- Kd (HLA-A*69:01 [5]): 0.277 µM
- Kd (HLA-A*02:19): 0.00467 µM
- Kd (HLA-A*02:03): 0.00086 µM
- Kd (HLA-A*02:11): 0.000145 µM

Sequence: RADEINAIL
- Kd (HLA-A*31:01; [16]): ≥ 20 µM
- Kd (HLA-A*29:02): ≥ 20 µM
- Kd (HLA-A*03:01 [6]; [16]): ≥ 20 µM
- Kd (HLA-B*27:05; [16]): ≥ 20 µM
- Kd (HLA-B*57:01; [16]): ≥ 20 µM
- Kd (HLA-A*69:01 [7]): ≥ 20 µM
- Kd (HLA-B*15:01 [8]; [16]): ≥ 20 µM
- Kd (HLA-B*44:02; [16]): ≥ 20 µM
- Kd (HLA-A*01:01 [9]): ≥ 20 µM
- Kd (HLA-A*11:01; [16]): ≥ 20 µM
- Kd (HLA-B*18:01; [16]): ≥ 20 µM
- Kd (HLA-C*05:01; [16]): ≤ 0.001 µM
- Kd (HLA-B*46:01; [16]): ≥ 20 µM

Sequence: IFRLMRTNF
- IC50 (HLA-A*24:02; [14]): 0.0398 µM
- IC50 (HLA-B*15:01 [4]; [14]): 2.18 µM
- IC50 (HLA-B*08:01; [14]): 55.2 µM
- IC50 (HLA-B*07:02 [3]; [14]): 9.03 µM

Sequence: ILRNPGFAL
- Kd (HLA-B*51:01; [17]): ≥ 20 µM
- Kd (HLA-C*03:03; [17]): 0.211 µM

Sequence: AFHHVAREL
- Kd (HLA-C*14:02): ≤ 0.001 µM

Sequence: SQAPLPCVL
- Kd (HLA-C*12:03; source organism: human gammaherpesvirus 4): 0.554 µM

Sequence: ARKHHTKID
- IC50 (HLA-A*24:02; source organism: Variola virus): 0.025 µM
- IC50 (HLA-B*08:01; source organism: Variola virus): 41.7 µM

Sequence: FVDVGVSAL
- Kd (HLA-A*31:01; [18]): ≥ 20 µM
- Kd (HLA-B*15:09): 2.2 µM
- Kd (HLA-B*40:01): ≥ 20 µM
- Kd (HLA-A*03:01 [6]; [18]): ≥ 20 µM
- Kd (HLA-B*48:01): ≥ 20 µM
- Kd (HLA-B*58:01): ≥ 20 µM
- Kd (HLA-B*27:05; [18]): ≥ 20 µM
- Kd (HLA-B*57:01; [18]): ≥ 20 µM
- Kd (HLA-B*15:01 [8]; [18]): ≥ 20 µM
- Kd (HLA-B*44:02; [18]): ≥ 20 µM
- Kd (HLA-B*07:02 [10]): ≥ 20 µM
- Kd (HLA-A*11:01; [18]): ≥ 20 µM
- Kd (HLA-B*18:01; [18]): ≥ 20 µM
- Kd (HLA-C*05:01; [18]): ≤ 0.001 µM
- Kd (HLA-B*46:01; [18]): ≥ 20 µM
- Kd (HLA-C*12:03; [18]): ≥ 20 µM

Sequence: RLPKRSVML
- IC50 (HLA-A*03:01 [11]): 34.1 µM
- IC50 (HLA-A*02:01 [2]; [19]): 2.65 µM
- IC50 (HLA-A*24:02; [19]): 0.0521 µM
- IC50 (HLA-B*15:01 [4]; [19]): 12.7 µM
- IC50 (HLA-B*08:01; [19]): 15.2 µM
- IC50 (HLA-B*07:02 [3]; [19]): 7.67 µM

Sequence: YVSVVSSHY
- Kd (HLA-A*01:01 [12]): 0.549 µM
